Measured values from paper PMC10817188.

Columns and labels:
[1] = target: KPC-2 carbapenemase (Klebsiella pneumoniae carbapenemase 2) (Klebsiella pneumoniae (endogenous in ATCC BAA-1705)) (UniProt Q9F663)
[2] = target: β-lactamase obtained from Bacillus cereus 569H (Bacillus cereus 569H)
[3] = target: β-lactamase obtained from Bacillus cereus 569H (Bacillus cereus 569H); remark: listed apart in the source

Sequence of UniProt Q9F663 (Q9F663 25-293): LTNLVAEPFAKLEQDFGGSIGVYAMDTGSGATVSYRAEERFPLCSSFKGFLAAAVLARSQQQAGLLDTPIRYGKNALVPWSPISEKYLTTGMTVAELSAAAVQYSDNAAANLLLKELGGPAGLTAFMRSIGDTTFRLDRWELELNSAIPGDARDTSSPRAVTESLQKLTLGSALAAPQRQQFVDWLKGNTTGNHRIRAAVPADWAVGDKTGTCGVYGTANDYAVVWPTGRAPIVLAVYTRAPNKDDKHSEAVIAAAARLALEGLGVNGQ

B1: truncated BLIP-II (tBLIP-II), β-lactamase inhibitory protein-II without its signal sequence (natural protein)
chain: ATSVVAWGGNNDWGEATVPAEAQSGVDAIAGGYFHGLALKGGKVLGWGANLNGQLTMPAATQSGVDAIAAGNYHSLALKDGEVIAWGGNEDGQTTVPAEARSGVDAIAAGAWASYALKDGKVIAWGDDSDGQTTVPAEAQSGVTALDGGVYTALAVKNGGVIAWGDNYFGQTTVPAEAQSGVDDVAGGIFHSLALKDGKVIAWGDNRYKQTTVPTEALSGVSAIASGEWYSLALKNGKVIAWGSSRTAPSSVQSGVSSIEAGPNAAYALKG
MIC of meropenem against K. pneumoniae ATCC BAA-1705 (bla KPC-2 positive) with 10 or 20 μM protein (16 μg/mL without protein; 8 at both concentrations) [1]: 8 mg/L | IC50 of inhibition of nitrocefin hydrolysis by the β-lactamase (inhibitor 0.0078-2 μM, pre-incubated 15 min at 30°C, absorbance at 490 nM) [2]: 0.0511 µM | reduction in β-lactamase activity (nitrocefin hydrolysis) at 0.0625 μM inhibitor; constant at higher concentrations up to 2 μM [3]: 70%
